Several values for one entry are separate records, joined by “and”; a condition that tells them apart may be missing. Equal values may be shown once. Blank lines part the entries; values can stand above or below the binder they belong to.
What was measured:
[1] = molecular target: T1, oligopeptide ATYPSGHLD (SEQ ID NO: 101); assay: ELISA on coated peptide
T1 construct: Synthetic peptide, part of Loop C of AQP3
T1 peptide: ATYPSGHLD
Protocol: (§1) To determine the important amino acid residues of an epitope in Loop C involved in binding to specific AQP3 antibody clones, peptides of varying lengths were produced. The sequences of these peptides are shown in column 2 of Table 4.
(§2) The various peptides and AQP3 antibody clones were subjected to ELISA binding analyses. […] The microtiter wells (Costar 2690) were coated with 50 μL of each peptide at 4° C. overnight. The wells were washed 3 times with PBS and blocked with 100 μL of 1% BSA/PBS at 37° C. for 1 hour. Each antibody was adjusted to 1 μg/mL in 1% SBA/PBS as above then serially diluted 1:5 in 1% BSA/PBS. The blocker was discarded and the wells were incubated with 50 μL of antibodies at 37° C. for 1.5 hours. The wells were washed 3 times with PBS and mouse antibodies were detected with 50 μL of goat anti-mouse IgG (H+L) HRP conjugate (ThermoFisher 31438) (1:5,000 in 1% BSA/PBS) and rabbit antibodies were detected with 50 μL of goat anti-rabbit IgG (H+L) HRP conjugate (ThermoFisher 31462) (1:5,000 in 1% BSA/PBS) at 37° C. for 1 hour. The wells were washed 3 times with PBS and developed with 50 μL of HRP substrate at RT for 5 min then stopped with 50 μL of 2N sulfuric acid and binding was measured with a plate reader.

[2] = molecular target: T2, oligopeptide GIFATYPSGHLDM (SEQ ID NO: 107); assay: ELISA on coated peptide
T2 construct: Synthetic peptide, part of Loop C of AQP3
T2 peptide: GIFATYPSGHLDM
Protocol: as §1, §2

[3] = molecular target: T3, oligopeptide GHLDM (SEQ ID NO: 100); assay: ELISA on coated peptide
T3 construct: Synthetic peptide, part of Loop C of AQP3
T3 peptide: GHLDM
Protocol: as §1, §2

[4] = molecular target: T4, oligopeptide YPSGHLDM (SEQ ID NO: 97); assay: ELISA on coated peptide
T4 construct: Synthetic peptide, part of Loop C of AQP3; first diluted in DMSO
T4 peptide: YPSGHLDM
Protocol: as §1, §2

[5] = molecular target: T5, oligopeptide FATYPSGHLDM (SEQ ID NO: 109); assay: ELISA on coated peptide
T5 construct: Synthetic peptide, part of Loop C of AQP3
T5 peptide: FATYPSGHLDM
Protocol: as §1, §2

[6] = molecular target: T6, oligopeptide IFATYPSGHLDM (SEQ ID NO: 108); assay: ELISA on coated peptide
T6 construct: Synthetic peptide, part of Loop C of AQP3
T6 peptide: IFATYPSGHLDM
Protocol: as §1, §2

[7] = molecular target: T7, oligopeptide ATYPSGH (SEQ ID NO: 103); assay: ELISA on coated peptide
T7 construct: Synthetic peptide, part of Loop C of AQP3
T7 peptide: ATYPSGH
Protocol: as §1, §2

[8] = molecular target: T8, oligopeptide SGHLDM (SEQ ID NO: 99); assay: ELISA on coated peptide
T8 construct: Synthetic peptide, part of Loop C of AQP3
T8 peptide: SGHLDM
Protocol: as §1, §2

[9] = molecular target: T9, oligopeptide AGIFATYPSGHLDM (SEQ ID NO: 106); assay: ELISA on coated peptide
T9 construct: Synthetic peptide, part of Loop C of AQP3
T9 peptide: AGIFATYPSGHLDM
Protocol: as §1, §2

[10] = molecular target: T10, oligopeptide TYPSGHLDM (SEQ ID NO: 96); assay: ELISA on coated peptide
T10 construct: Synthetic peptide, part of Loop C of AQP3
T10 peptide: TYPSGHLDM
Protocol: as §1, §2

[11] = molecular target: T11, oligopeptide ATYPSG (SEQ ID NO: 104); assay: ELISA on coated peptide
T11 construct: Synthetic peptide, part of Loop C of AQP3
T11 peptide: ATYPSG
Protocol: as §1, §2

[12] = molecular target: T12, oligopeptide ATYPSGHL (SEQ ID NO: 102); assay: ELISA on coated peptide
T12 construct: Synthetic peptide, part of Loop C of AQP3
T12 peptide: ATYPSGHL
Protocol: as §1, §2

[13] = molecular target: T13, oligopeptide PSGHLDM (SEQ ID NO: 98); assay: ELISA on coated peptide
T13 construct: Synthetic peptide, part of Loop C of AQP3
T13 peptide: PSGHLDM
Protocol: as §1, §2

[14] = molecular target: T14, oligopeptide ATYPSGHLDM (SEQ ID NO: 1) (human and mouse); assay: ELISA on coated peptide
T14 construct: Synthetic peptide; positions 148 to 157 of the human AQP3 polypeptide, identical in mouse; also called peptide used for immunization; oligopeptide 5
T14 peptide: ATYPSGHLDM
Protocol: as §1, §2

[15] = molecular target: T15, oligopeptide SGPNGTAGIFATYPS (SEQ ID NO: 94); assay: ELISA on coated peptide
T15 construct: Synthetic peptide, part of Loop C of AQP3
T15 peptide: SGPNGTAGIFATYPS
Protocol: as §1, §2

[16] = molecular target: T16, oligopeptide TAGIFATYPSGHLDM (SEQ ID NO: 105); assay: ELISA on coated peptide
T16 construct: Synthetic peptide, part of Loop C of AQP3
T16 peptide: TAGIFATYPSGHLDM
Protocol: as §1, §2

[17] = molecular target: T17, oligopeptide SRGTHGGFL (SEQ ID NO: 2); assay: ELISA on peptide SEQ ID NO:2 (FIG. 16B)
T17 construct: Synthetic peptide of AQP3 Loop A; also called Loop A peptide; control peptide
T17 peptide: SRGTHGGFL

[18] = molecular target: T14, oligopeptide ATYPSGHLDM (SEQ ID NO: 1); assay: ELISA on peptide SEQ ID NO:1, IgG, 50% binding response (FIG. 16A)
[19] = molecular target: T18, mouse aquaporin 3 (AQP3) on cells (mouse, UniProt Q8R2N1 1-292); assay: fluorescence binding assay on PAM212 cells, 10 µg/mL
T18 construct: whole, on cells; Water channel membrane protein; also called mouse AQP3; AQP3 on PAM212 cells
T18 sequence (looked up): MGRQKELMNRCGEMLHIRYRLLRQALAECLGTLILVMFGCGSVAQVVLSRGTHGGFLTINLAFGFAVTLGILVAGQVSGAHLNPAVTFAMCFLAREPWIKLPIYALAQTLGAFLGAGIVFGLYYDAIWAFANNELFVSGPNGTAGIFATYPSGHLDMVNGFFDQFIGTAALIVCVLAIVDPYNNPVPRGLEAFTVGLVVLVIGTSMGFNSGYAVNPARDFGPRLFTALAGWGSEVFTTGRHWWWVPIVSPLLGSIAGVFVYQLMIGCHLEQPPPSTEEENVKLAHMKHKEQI
Protocol: (§3) PAM212 cells were reacted with each anti AQP3 antibody at concentrations of none, 1 ng/mL, 10 ng/mL, 100 ng/mL, 1 μg/mL, or 10 μg/mL at 4° C. for 1 hour. After washing the cells, a fluorescent-labeled secondary antibody was added and the reaction was allowed to occur additionally for 1 hour (at 4° C.). By measuring the fluorescence intensity, the binding property of each anti AQP3 antibody to cells was obtained.

[20] = molecular target: T19, human aquaporin 3 (AQP3) on cells (human, UniProt Q92482 1-292); assay: fluorescence binding assay on HaCaT cells, 10 µg/mL
T19 construct: whole, on cells; Water channel membrane protein; also called human AQP3; AQP3 on HaCaT cells
T19 sequence (looked up): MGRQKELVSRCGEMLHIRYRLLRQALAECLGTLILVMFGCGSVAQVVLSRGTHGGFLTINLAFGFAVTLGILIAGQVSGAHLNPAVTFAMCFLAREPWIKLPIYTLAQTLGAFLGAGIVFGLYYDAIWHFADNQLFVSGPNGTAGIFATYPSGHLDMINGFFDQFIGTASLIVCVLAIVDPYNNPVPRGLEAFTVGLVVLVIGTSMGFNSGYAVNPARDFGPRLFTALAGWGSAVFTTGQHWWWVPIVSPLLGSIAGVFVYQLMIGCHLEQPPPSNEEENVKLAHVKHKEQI
Protocol: as §3, with “HaCaT” for “PAM212”

[21] = molecular target: T19, human aquaporin 3 (AQP3) on cells; assay: fluorescence binding assay on HaCaT cells, 10 µg/mL (FIG. 5C)
[22] = molecular target: T20, mouse AQP3 in lysate of HEK293T cells overexpressing mouse AQP3 and a myc-biotinylated tag (mouse, UniProt Q8R2N1 1-292); assay: ELISA on lysate of HEK293T cells overexpressing mouse AQP3 (FIG. 3)
T20 construct: Cell lysate used in ELISA; also called AQP3 containing cell lysate; not shown: myc-biotinylated tag
T20 sequence (looked up): T18 sequence (looked up)
From the text: Cell lysate from HEK293T cells overexpressing mouse AQP3 and a myc-biotinylated tag was used in an ELISA assay to measure the binding of antibodies A, B, C, D, E, F, G, H, J, and K to AQP3. Cell lysate from HEK293T cells overexpressing the myc-biotinylated tag but not AQP3 was used as control. […] C. Antibody binding to AQP3 expressing cells

[23] = molecular target: T18, mouse aquaporin 3 (AQP3) on cells; assay: fluorescence binding assay on PAM212 cells, 10 µg/mL (FIG. 5B)
Protocol: as §3, with “PAM212 and macrophage” for “PAM212”, “(0.1, 1,” for “at concentrations of none, 1 ng/mL, 10 ng/mL, 100 ng/mL, 1 μg/mL,”, “μg/mL)” for “μg/mL”, “(4°” for “(at 4°”
The assay was also performed using PAM212 cells and antibodies A, B, C, D, E, F, G, H, and J at a concentration of 10 μg/mL. Binding of antibodies C, D, E, G, and J to PAM212 cells was statistically significant.

[24] = molecular target: T14, oligopeptide ATYPSGHLDM (SEQ ID NO: 1); assay: ELISA on the immunogen peptide (FIG. 2)

binding signal (plate reader) [1]: 3.91 | binding signal (plate reader) [2]: 3.86 | binding signal (plate reader) [3]: 0.06 | binding signal (plate reader) [4]: 3.94 | binding signal (plate reader) [5]: 3.92 | binding signal (plate reader) [6]: 3.91 | binding signal (plate reader) [7]: 3.81 | binding signal (plate reader) [8]: 0.071 | binding signal (plate reader) [9]: 3.92 | binding signal (plate reader) [10]: 3.92 | binding signal (plate reader) [11]: 1.77 | binding signal (plate reader) [12]: 3.99 | binding signal (plate reader) [13]: 1.56 | binding signal (plate reader) [14]: 3.97 | binding signal (plate reader) [15]: 2.99 | binding signal (plate reader) [16]: 4 | binding result [17]: no binding | EC50 [18]: 0.01 µg/mL and ~0.06 nM | fold fluorescence intensity over no antibody [19]: ≥ 2 fold | fold fluorescence intensity over no antibody [20]: > 2 fold
B1: SC-F8 (IgG) (antibody, V domains shown)
VH: QTVKESGGRLVTPGGSLTLTCTVSRFSLSNYAMTWVRQAPGKGLEWIGIINNDGISSTWYASWVKGRFTISKTSTTMDLKMTSLTTEDTATYFCARGGTSGYDIWGPGTLVTVSL
VL: AQVLTQTPSPVSAAVGGTVTINCQSSPSVYKNYLSWYQQKPGQPPKLLIYGASTLASGVPSRFKGSGSGTQFTLTISDVQCDDAATYYCAGGYRGSSDIFAFGGGTEVVVK
notes: also called anti AQP3 antibody SC-F8

binding result [21]: binds | binding result [22]: binds | binding result [23]: binds
B2: Antibody D (antibody, mouse IgG2a, kappa, V domains shown)
VH: EVQLQQSGAELVRPGASVTLSCKASGYTFTDYEMHWVQQTPVHGLEWIGGIDPETGGTGYNQKFKGKAILTADKSSSTAYMELRSLTSEDSAVYFCTRHGSYAMDYWGQGTSVTVSS
VL: DIVMTQSPKFMSTSVGDRVSITCKASQDVSTAVAWYQQKPGQSPKLLIYWASTRHTGVPDRFTGSGSGTDYTLTISSVQAEDLALYYCQQHYSTPPTFGGGTRLEIKR
notes: also called anti AQP3 antibody D

binding result [21]: binds | binding result [24]: binds | binding result [22]: binds | binding result [23]: binds
B3: Antibody E (antibody, mouse IgG2a, kappa, V domains shown)
VH: EVKLLESGAELVRPGASVTLSCKASGYTFTDYEMHWVKQTPVHGLEWIGGIDPESGGTGYNQKFKGKAILTADKSSSTAYMELRSLTSEDSAVYFCTRSGYYGSPLLDYWGQGTTLTVSS
VL: QIVLSQSPAIMSASLGERVTMTCTASSSVSSSYLHWYQQKPGSSPKLWIYSTSNLASGVPARFSGSGSGTSYSLTISSMEAEDAATYYCHQYHRSPPTFGAGTKLEIKR
notes: also called anti AQP3 antibody E; Antiboy E

binding signal (plate reader) [1]: 2.52 | binding signal (plate reader) [2]: 2.92 | binding signal (plate reader) [3]: 0.043 | binding signal (plate reader) [4]: 1.58 | binding signal (plate reader) [5]: 2.8 | binding signal (plate reader) [6]: 2.8 | binding signal (plate reader) [7]: 0.047 | binding signal (plate reader) [8]: 0.048 | binding signal (plate reader) [9]: 2.97 | binding signal (plate reader) [10]: 1.79 | binding signal (plate reader) [11]: 0.044 | binding signal (plate reader) [12]: 1.69 | binding signal (plate reader) [13]: 0.271 | binding signal (plate reader) [14]: 2.21 | binding signal (plate reader) [15]: 0.045 | binding signal (plate reader) [16]: 2.81 | binding result [21]: binds | binding result [22]: binds | EC50 [18]: ~0.1 mg/L | binding result [23]: binds
B4: Antibody C (antibody, mouse IgG2a, kappa, V domains shown)
VH: QVQLKQSGAELARPGASVKLSCKASGYNFKSYGISWVKQRTGQGLEWIGEIYPGSGNTYYNEKLKGKATLTADKSSSTAYMELRSLTSEDSAVYFCARTYGYDSFPWFAYWGQGTLVTVSS
VL: DIVMTQAAPSVPVTPGESVSISCRSSKSLLHSNGNTYLYWFLQRPGQSPQLLIYRVSNLASGVPDRFSGSGSGTAFTLRISRVEAEDEGVYYCMQHLEYPFTFGAGTKLEIKR
notes: also called anti AQP3 antibody C

Source: US20220298237A1 (KEIO UNIVERSITY, published 2022)
